Source: US20250340608A1 (PROTAGONIST THERAPEUTICS, published 2025)
Square brackets hold non-standard residues; d marks the D form. Primed or numbered codes have the meaning given here. * marks the point of attachment. Palmitoyl = CCCCCCCCCCCCCCCC(=O)*; β3hP = O=C(O)C[C@@H]1CCCN1; PEG11′ = not defined here; Octanoyl = CCCCCCCC(=O)*

T1: human ferroportin (SLC40A1) fused in frame with GFP, stably expressed in HEK293 cells (human, UniProt Q9NP59 1-571)
T1 sequence (looked up): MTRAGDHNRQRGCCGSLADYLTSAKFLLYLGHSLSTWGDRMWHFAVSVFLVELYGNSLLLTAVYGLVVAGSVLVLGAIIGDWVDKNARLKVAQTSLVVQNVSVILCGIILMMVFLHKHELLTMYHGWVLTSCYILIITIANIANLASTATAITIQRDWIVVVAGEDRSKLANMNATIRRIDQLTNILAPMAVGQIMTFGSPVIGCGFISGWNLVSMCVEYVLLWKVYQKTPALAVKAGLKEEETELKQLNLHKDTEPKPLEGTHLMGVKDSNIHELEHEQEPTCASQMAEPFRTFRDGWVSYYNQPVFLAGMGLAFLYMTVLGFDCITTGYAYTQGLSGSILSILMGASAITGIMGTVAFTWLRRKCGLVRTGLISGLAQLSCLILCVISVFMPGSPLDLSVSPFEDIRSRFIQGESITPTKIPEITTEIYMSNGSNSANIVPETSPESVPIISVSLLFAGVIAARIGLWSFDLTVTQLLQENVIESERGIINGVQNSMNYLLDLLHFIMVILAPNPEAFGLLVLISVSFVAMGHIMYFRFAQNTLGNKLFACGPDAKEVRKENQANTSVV


What follows are binders tested against T1, human ferroportin (SLC40A1) fused in … (assay: cell-based or functional assay).

Potency EC50 (nM)	Potency EC50 [nM]	Binder
> 1000	–	H-DTHFPCIIFGPRARGWVCK-NH2 (not fully specified (bridges); printed as Hy-DTHFPCIIFGPRARGWVCK-NH2; cysteine pairing not given here) [Compound 87]
> 1000	–	H-EDTHFPCIIFGPRSKGWVCK-NH2 (not fully specified (bridges); printed as Hy-EDTHFPCIIFGPRSKGWVCK-NH2; cysteine pairing not given here) [Compound 103]
–	705	H-DTHFPCIYFGPRSKGWVCK-NH2 (not fully specified (bridges); printed as Hy-DTHFPCIYFGPRSKGWVCK-NH2; cysteine pairing not given here) [Compound 85]
> 1000	–	H-DTHFPCIRFGPRSRGWRCK-NH2 (cysteine pairing not given here) [Compound 82]
> 1000	–	H-DTHFPCIIFGPRSKGWVCK-NH2 (not fully specified (bridges); printed as Hy-DTHFPCIIFGPRSKGWVCK-NH2; cysteine pairing not given here) [Compound 86]
> 1000	–	H-DTHFPCIIFGPRSRGVCK-NH2 (not fully specified (bridges); printed as Hy-DTHFPCIIFGPRSRGVCK-NH2; cysteine pairing not given here) [Compound 84]
> 1000	–	H-DTHFPCISFGPRSKGWVCK-NH2 (not fully specified (bridges); printed as Hy-DTHFPCISFGPRSKGWVCK-NH2; cysteine pairing not given here) [Compound 101]
> 1000	–	{Palmitoyl-PEG11′}-DTHFPCIIFGPRSRGWVCK-NH2 (not fully specified (bridges); printed as Palm-PEG11-DTHFPCIIFGPRSRGWVCK-NH2; cysteine pairing not given here) [Compound 89]
> 1000	–	H-DTHFPCIIFGPRSRGWVCK-NH2 (cysteine pairing not given here) [Compound 83]
> 1000	–	Octanoyl-DTHFPCIIFGPRSRGWVCK-NH2 (not fully specified (bridges); cysteine pairing not given here) [Compound 88]
> 1000	–	H-DTHFPCIKFGPRSKGWVCK-NH2 (not fully specified (bridges); printed as Hy-DTHFPCIKFGPRSKGWVCK-NH2; cysteine pairing not given here) [Compound 102]
> 1000	–	H-DTHF[β3hP]CIIFGPRSRGWVCK-NH2 (not fully specified (bridges); printed as Hy-DTHF[bh-Pro]-CIIFGPRSRGWVCK-NH2; cysteine pairing not given here) [Compound 79]
> 1000	–	H-DTHFPCIRFGPRSRGWVCK-NH2 (cysteine pairing not given here) [Compound 81]
> 1000	–	H-DTHFPCIIFGPRSRGWRCK-NH2 (cysteine pairing not given here) [Compound 80]
